This data set relates to ATP. The data set is described as follows: switch fluorescence ratio, 500 uM ATP over buffer (Cy3 cluster intensity, sum of 5 cycles each) (fold (ratio)); higher = stronger signal-on switching upon ATP binding; sequences stand for … in TCGTCGGCAGCGTCAGATGTGTATAAGAGACAGTTTTTTTTTTTTTTTTTTTTTTTTT…TC. Conditions: aptamer strand: ATP DNA aptamer (quencher-CACCTGGGGGAGTATTGCGGAGGAAGG + anchor), 100 nM annealed; ATP concentration: 500 uM. Summed up: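 For every switch-domain sequence, the fluorescence ratio is the mean of per-cluster values, each being summed target-cycle Cy3 intensity over summed buffer-cycle Cy3 intensity. Clusters outside 100-1000 RFU were excluded. On a modified Illumina MiSeq flow-cell, the Cy3-labelled switching-strand clusters were annealed to 100 nM quencher-labelled ATP aptamer, imaged in selection buffer and then after 15 min with 500 uM ATP at 22 °C. Five such cycles were run, with NaOH stripping and re-annealing between them.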

± gives the standard deviation of the averaged measurements.
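Also: ATP exposure 15 min at 22 °C before imaging.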

Consider GAGGGGTCCT, for which the switch fluorescence ratio amounted to 1.24 ± 0.39.
As to GAGGGGTGAC, the switch fluorescence ratio was determined as 0.979 ± 0.021.
Then GAGGGGTGGT, with 0.987 ± 0.029.
For the sequence GAGGGGTTTT, the switch fluorescence ratio was 1.01 ± 0.04.
Turning to GAGGGTAGCG, the switch fluorescence ratio worked out at 0.96 ± 0.059.
For GAGGGTATAG, the switch fluorescence ratio stood at 1.02 ± 0.085.
In the case of GAGGGTTGGG it was 1.06 ± 0.045; in that of GAGGGTTGTT, 0.997 ± 0.019; in that of GAGGTAAGGG, 0.998 ± 0.029.
As for GAGGTAATGT, the switch fluorescence ratio worked out at 1.039 ± 0.0025.
Then GAGGTACGCT, with 1.01 ± 0.021; and GAGGTACTTG, with 0.975 ± 0.039.
Then GAGGTAGATA, with 1.03 ± 0.046.
In the case of GAGGTCAGGT it was 1.01 ± 0.021; in that of GAGGTCGGCA, 1.02 ± 0.011; in that of GAGGTGAGAG, 1.02 ± 0.058.
As for GAGGTGAGGG, the switch fluorescence ratio was determined as 1 ± 0.057.
Then GAGGTGCAGG, with 0.9932 ± 0.008; and GAGGTGCGGG, with 0.99 ± 0.023.
As for GAGGTGCGGT, the switch fluorescence ratio stood at 0.975 ± 0.049.
GAGGTGGGGA: the switch fluorescence ratio was determined as 0.9826 ± 0.0055.
GAGGTGGTGC: the switch fluorescence ratio was determined as 0.966 ± 0.072.
For GAGGTGGTGG, the switch fluorescence ratio came to 0.998 ± 0.036.
Then GAGGTTATCA, with 1.01 ± 0.013; and GAGGTTGACA, with 1.03 ± 0.017; and GAGGTTGGAG, with 1 ± 0.00098.
Regarding GAGGTTGGCA, the switch fluorescence ratio was 0.994 ± 0.01.
In the case of GAGGTTTAGG it was 0.986 ± 0.042; in that of GAGGTTTGCG, 0.965 ± 0.028; in that of GAGGTTTTTA, 0.986 ± 0.027.
Then GAGGTTTTTG, with 0.994 ± 0.032; and GAGTAAAAAG, with 0.99 ± 0.014.
Take GAGTAAATTG: the switch fluorescence ratio is 0.987 ± 0.019.
Then GAGTAACGGT, with 1.03 ± 0.027.
In the case of GAGTAACTGT, the switch fluorescence ratio is 0.966 ± 0.016.
In the case of GAGTAAGAGT it was 1.0175 ± 0.00091; in that of GAGTAATTGT, 0.9975 ± 0.0042.
As for GAGTACGAGT, the switch fluorescence ratio was 1.0098 ± 0.001.
Regarding GAGTACTTTG, the switch fluorescence ratio stood at 0.9847 ± 0.0015.
In the case of GAGTAGAGTG it was 0.957 ± 0.026; in that of GAGTAGCGGT, 1.01 ± 0.026.
With GAGTAGGAGG, the switch fluorescence ratio was 0.974 ± 0.051.
As to GAGTAGGGGA, the switch fluorescence ratio stood at 0.97 ± 0.055.
For GAGTATAAGC, the switch fluorescence ratio was determined as 0.9844 ± 0.0069.
Regarding GAGTATGAAG, the switch fluorescence ratio amounted to 1.01 ± 0.031.
Then GAGTATGCCC, with 1.02 ± 0.039; and GAGTATTATA, with 1 ± 0.025; and GAGTCCAGGG, with 1.21 ± 0.27.
Consider GAGTCGCCTG, for which the switch fluorescence ratio came out at 0.991 ± 0.037.
As to GAGTGAAATG, the switch fluorescence ratio was 1.02 ± 0.023.
Consider GAGTGACGGA, for which the switch fluorescence ratio stood at 1 ± 0.054.
In the case of GAGTGCGGCT, the switch fluorescence ratio was 1.07 ± 0.16.
In the case of GAGTGCGGGC, the switch fluorescence ratio was 1.07 ± 0.068.
On to GAGTGGAGAC, for which the switch fluorescence ratio was found to be 0.977 ± 0.053.
Take GAGTGGAGGC: the switch fluorescence ratio is 1.03 ± 0.05.
For the sequence GAGTGGATAG, the switch fluorescence ratio amounted to 0.996 ± 0.018.
In the case of GAGTGGGGAG it was 0.968 ± 0.045; in that of GAGTGGGGGC, 1.01 ± 0.054.
GAGTGGGGGT: the switch fluorescence ratio came out at 0.977 ± 0.032.
Take GAGTGTCAGC: the switch fluorescence ratio worked out at 1 ± 0.035.
In the case of GAGTGTGTTC, the switch fluorescence ratio amounted to 1.01 ± 0.024.
In the case of GAGTTAAACA it was 0.994 ± 0.021; in that of GAGTTAACGG, 1 ± 0.0026.
As for GAGTTACGGC, the switch fluorescence ratio is 1.22 ± 0.26.
For GAGTTACTTT, the switch fluorescence ratio was determined as 1.02 ± 0.023.
For the sequence GAGTTATGGG, the switch fluorescence ratio worked out at 0.9963 ± 0.0048.
For the sequence GAGTTGACGG, the switch fluorescence ratio was found to be 1.03 ± 0.013.
GAGTTGGAAG: the switch fluorescence ratio was found to be 1.009 ± 0.0071.
GAGTTGGGTC: the switch fluorescence ratio came to 1.02 ± 0.021.
As to GAGTTGTCAA, the switch fluorescence ratio amounted to 0.972 ± 0.033.
As to GAGTTGTGAT, the switch fluorescence ratio was 1 ± 0.019.
Regarding GAGTTGTGCG, the switch fluorescence ratio came out at 0.9969 ± 0.001.
Then GAGTTTATGG, with 0.984 ± 0.029; and GAGTTTGACC, with 0.965 ± 0.03.
On to GAGTTTGCGT, for which the switch fluorescence ratio worked out at 1.03 ± 0.015.
In the case of GAGTTTGGAC it was 0.985 ± 0.058; in that of GAGTTTGTCC, 0.998 ± 0.012.
Consider GAGTTTTTGT, for which the switch fluorescence ratio is 1.01 ± 0.017.
Then GATAAATTTT, with 0.974 ± 0.023.
In the case of GATAACATGT, the switch fluorescence ratio came to 1.02 ± 0.029.
In the case of GATAAGAGCG, the switch fluorescence ratio worked out at 0.975 ± 0.029.
In the case of GATAAGTATG it was 0.975 ± 0.015.
Turning to GATAATAATG, the switch fluorescence ratio is 1.02 ± 0.0061.
On to GATAATGGGT, for which the switch fluorescence ratio turned out to be 0.976 ± 0.042.
Turning to GATAATGGTT, the switch fluorescence ratio amounted to 0.964 ± 0.011.
In the case of GATAATTGGG it was 0.9992 ± 0.0079; in that of GATACATGCT, 0.979 ± 0.036.
Regarding GATACCATGG, the switch fluorescence ratio came out at 0.985 ± 0.03.
Turning to GATACCTATG, the switch fluorescence ratio was 1.03 ± 0.027.
Take GATACGCCAC: the switch fluorescence ratio was determined as 2.11 ± 0.06.
Then GATACGTAGG, with 1.009 ± 0.0049; and GATACTATTT, with 0.98 ± 0.03.
As for GATACTCTTA, the switch fluorescence ratio was 1.021 ± 0.0081.
As to GATACTGATC, the switch fluorescence ratio was determined as 1.13 ± 0.042.
Turning to GATACTGGGT, the switch fluorescence ratio turned out to be 0.995 ± 0.046.
For GATAGAAAGC, the switch fluorescence ratio worked out at 0.9852 ± 0.0027.
Turning to GATAGACGCA, the switch fluorescence ratio is 1.1 ± 0.089.
In the case of GATAGACTTA it was 0.949 ± 0.03; in that of GATAGAGGGT, 1.01 ± 0.033; in that of GATAGAGGTG, 1.32 ± 0.62.
Consider GATAGATCAG, for which the switch fluorescence ratio came to 0.993 ± 0.018.
For the sequence GATAGGAAAC, the switch fluorescence ratio turned out to be 1.12 ± 0.12.
Then GATAGGGAGG, with 0.993 ± 0.016; and GATAGGGGCG, with 0.998 ± 0.026; and GATAGGGTGC, with 1.14 ± 0.044.
Then GATAGGTGAG, with 1.01 ± 0.024; and GATAGGTGGT, with 0.9691 ± 0.0046.
In the case of GATAGTTCGT, the switch fluorescence ratio was determined as 1.01 ± 0.021.
GATAGTTTAC: the switch fluorescence ratio came to 1.01 ± 0.044.
Turning to GATAGTTTTG, the switch fluorescence ratio was found to be 0.9856 ± 0.0089.
Turning to GATAGTTTTT, the switch fluorescence ratio amounted to 0.985 ± 0.03.
Take GATATAAAGA: the switch fluorescence ratio is 0.994 ± 0.046.
For GATATAACAT, the switch fluorescence ratio was 1.028 ± 0.0025.
Take GATATAAGGG: the switch fluorescence ratio came to 0.979 ± 0.042.
As for GATATAATGG, the switch fluorescence ratio is 0.9999 ± 0.0019.
In the case of GATATCCGTA it was 0.962 ± 0.015; in that of GATATGGGTA, 1.02 ± 0.035.
Then GATATTAGTG, with 0.9827 ± 0.0044; and GATATTTAGT, with 0.995 ± 0.011; and GATATTTCCC, with 0.9981 ± 0.0064.
